According to the supplement of paper PMC7877785:
± gives the uncertainty stated by the source.

Experiment: self-splicing fitness, log relative to wild type (ln ratio); higher = more splicing; Tetrahymena group I intron in knt gene, E. coli kanamycin selection, DiMSum; sequences stand for … in CUCUCU…GGAGGGAAAAGUUAUCAGGCAUGCACCUGGUAGCUAGUCUUUAAACCAAUAGAUUGCAUCGGUUUAAAAGGCAAGACCGUCAAAUUGCGGGAAAGGGGUCAACAGCCGUUCAGUACCAAGUCUCAGGGGAAACUUUGAGAUGGCCUUGCAAAGGGUAUGGUAAUAAGCUGACGGACAUGGUCCUAACCACGCAGCCAAGUCCUAAGUCAACAGAUCUUCUGUUGAUAUGGAUGCAGUUCACAGACUAAAUGUCGGUCGGGGAAGAUGUAUUCUUCUCAUAAGAUAUAGUCGGACCUCUCCUUAAUGGGAGCUAGCGGAUGAAGUGAUGCAACACUGGAGCCGCUGGGAACUAAUUUGUAUGCGAAAGUAUAUUGAUUAGUUUUGGAGUACUCGUGGUCG
How it was run: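 DiMSum derived fitness as the error-weighted combination of fold changes across replicates, kanamycin versus no kanamycin, normalised to wild type. E. coli BL21(DE3) held the library, which randomised all eight P1ex-region intron nucleotides within the knt kanamycin-resistance gene on pET-22b(+). Six replicate transformations grew overnight at 37°C or 30°C on LB agar with or without 25 μg/mL kanamycin, also containing 100 μg/mL carbenicillin, 50 μM IPTG and 0.2% rhamnose, and pooled colonies were amplicon-sequenced on an Illumina HiSeq 2500.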

Sequence | self-splicing fitness (ln) (30 °C) | self-splicing fitness (ln) (37 °C)
CAAAAGCAAUAUUACGCAGC | -3.68 ± 0.16 | -2.36 ± 0.16
CAAAAGCAAUAUUACGCAGG | -2.51 ± 0.1 | -1.24 ± 0.087
CAAAAGCAAUAUUACGCAUC | -3.35 ± 0.11 | -1.52 ± 0.12
CAAAAGCAAUAUUACGCCCG | -0.0339 ± 0.13 | 0.354 ± 0.15
CAAAAGCAAUAUUACGCGAA | -3.36 ± 0.23 | -1.3 ± 0.17
CAAAAGCAAUAUUACGCGAG | -2.58 ± 0.098 | -1.06 ± 0.078
CAAAAGCAAUAUUACGCGGG | -2.38 ± 0.11 | -1.87 ± 0.13
CAAAAGCAAUAUUACGGACA | -2.21 ± 0.15 | -1.64 ± 0.17
CAAAAGCAAUAUUACGGAGU | -3.64 ± 0.14 | -2.56 ± 0.16
CAAAAGCAAUAUUACGGCAU | -1.85 ± 0.11 | -1.4 ± 0.14
CAAAAGCAAUAUUACGGGUA | -2.22 ± 0.13 | -2.12 ± 0.15
CAAAAGCAAUAUUACGUAAU | -3.57 ± 0.15 | -3.04 ± 0.18
CAAAAGCAAUAUUACGUCCG | -0.119 ± 0.082 | 0.175 ± 0.1
CAAAAGCAAUAUUACGUCUG | -0.838 ± 0.042 | -0.0271 ± 0.052
CAAAAGCAAUAUUACGUUUU | -3.57 ± 0.12 | -2.79 ± 0.16
CAACAGCAAUAUUACGAACC | -2.27 ± 0.25 | -1.62 ± 0.22
CAACAGCAAUAUUACGAAGG | -0.969 ± 0.059 | -0.0092 ± 0.078
CAACAGCAAUAUUACGACAG | -0.131 ± 0.073 | 0.499 ± 0.09
CAACAGCAAUAUUACGACGC | -0.56 ± 0.065 | -0.0606 ± 0.085
CAACAGCAAUAUUACGAGCA | -2.97 ± 0.15 | -1.01 ± 0.11
CAACAGCAAUAUUACGCAGA | -3.45 ± 0.14 | -1.35 ± 0.075
CAACAGCAAUAUUACGCCAG | -1.4 ± 0.11 | -0.809 ± 0.14
CAACAGCAAUAUUACGCGAG | -2.29 ± 0.089 | -0.359 ± 0.066
CAACAGCAAUAUUACGCGCU | -3.18 ± 0.23 | -1.97 ± 0.19

Sequence | self-splicing fitness (ln) (30 °C) | self-splicing fitness (ln) (37 °C)
CAACAGCAAUAUUACGCUCG | -0.822 ± 0.072 | -0.727 ± 0.1
CAACAGCAAUAUUACGCUGU | -2.11 ± 0.2 | -2.65 ± 0.26
CAACAGCAAUAUUACGCUUU | -2.5 ± 0.17 | -2.54 ± 0.2
CAACAGCAAUAUUACGGAUU | -2.92 ± 0.13 | -1.94 ± 0.14
CAACAGCAAUAUUACGGCAG | -0.117 ± 0.069 | -0.00847 ± 0.076
CAACAGCAAUAUUACGGGGG | -2.07 ± 0.13 | -1.08 ± 0.1
CAACAGCAAUAUUACGGUCA | -1.16 ± 0.066 | -0.339 ± 0.069
CAACAGCAAUAUUACGUAGA | -2.68 ± 0.081 | -1.18 ± 0.081
CAACAGCAAUAUUACGUCUA | -1.06 ± 0.053 | -0.786 ± 0.055
CAACAGCAAUAUUACGUGAC | -4.28 ± 0.22 | -2.23 ± 0.15
CAACAGCAAUAUUACGUGAG | -0.531 ± 0.049 | -0.233 ± 0.07
CAACAGCAAUAUUACGUUAA | -2.36 ± 0.11 | -2.16 ± 0.12
CAACAGCAAUAUUACGUUAC | -3.99 ± 0.21 | -2.44 ± 0.14
CAACAGCAAUAUUACGUUAU | -3.16 ± 0.13 | -1.94 ± 0.13
CAACAGCAAUAUUACGUUGU | -4.21 ± 0.18 | -3.06 ± 0.16
CAACAGCAAUAUUACGUUUC | -3.28 ± 0.14 | -2.33 ± 0.16
CAAGAGCAAUAUUACGAAAG | -1.52 ± 0.12 | -1.64 ± 0.16
CAAGAGCAAUAUUACGAACU | -3.41 ± 0.27 | -2.11 ± 0.26
CAAGAGCAAUAUUACGACGC | – | -1.56 ± 0.32
CAAGAGCAAUAUUACGACUA | -3.01 ± 0.23 | -2.47 ± 0.21
CAAGAGCAAUAUUACGAGAC | -2.43 ± 0.37 | -1.93 ± 0.35
CAAGAGCAAUAUUACGCCAG | -1.92 ± 0.24 | -2 ± 0.41
CAAGAGCAAUAUUACGCCUU | -3.52 ± 0.32 | -2.57 ± 0.41
CAAGAGCAAUAUUACGCGAU | -2.62 ± 0.22 | -2.51 ± 0.49
